{"source": "paper PMC11697037", "about": "“Structural insights into the regulation of monomeric and dimeric apelin receptor” (Nature Communications, 2025)", "binders": {"B1": {"name": "human WT APJR (apelin receptor), cryo-EM construct with a deletion of 50 residues from the C-terminus (receptor, UniProt P35414 1-330, looked up)", "chain": "MEEGGDFDNYYGADNQSECEYTDWKSSGALIPAIYMLVFLLGTTGNGLVLWTVFRSSREKRRSADIFIASLAVADLTFVVTLPLWATYTYRDYDWPFGTFFCKLSSYLIFVNMYASVFCLTGLSFDRYLAIVRPVANARLRLRVSGAVATAVLWVLAALLAMPVMVLRTTGDLENTTKVQCYMDYSMVATVSSEWAWEVGLGVSSTTVGFVVPFTIMLTCYFFIAQTIAGHFRKERIEGLRKRRRLLSIIVVLVVTFALCWMPYHLVKTLYMLGSLLHWPCDFDLFLMNIFPYCTCISYVNSCLNPFLYAFFDPRFRQACTSMLCCGQSR", "notes": "The N-terminal fusion is HA signal peptide, Flag tag, 10x His tag and BRIL, in pFastBac1; No cleavage of the fusion is mentioned; The protein is seen both as a monomer and as a homodimer; also called ProtA; ProtB; source: Trichoplusia ni (Hi5) insect cells, baculovirus; alone or co-expressed with Gi and/or JN241-9; purified (LMNG/CHS, Talon resin, SEC); not shown: His10, N-terminal, kept"}, "B2": {"name": "JN241-Fc, antagonistic single-domain antibody (sdAb) JN241 with Fc tag (VHH)", "VHH": "QVQLVESGGGSVQSGGSLTLSCAASGSTYSSHCMGWFRQAPGKEREGVALMTRSRGTSYADSVKGRFTISQDNTKNILYLQMNSLKPEDTAMYYCAAVPRAGIESGAYCKWNMKDSGSWGQGTQVTVSS", "notes": "the model of the JN241-APJR complex deposited here (PDB 8XQJ) holds this chain; also called antagonistic antibody; sdAb antagonist; source: provided by Structure Therapeutics"}, "B3": {"name": "JN241 with the Fc tag removed (VHH)", "VHH": "B2 VHH", "notes": "as the VHH of m4; PDB 8XQJ holds the JN241 chain; also called sdAb; source: Fc tag removed"}}, "key": {"[1]": {"target": "the molecule itself", "assay": "cryo-EM structure; JN241-9-APJR complex, APJR and JN241-9 co-expressed in Hi5 cells (1:1 virus ratio), co-purified without added ligand; no Gi"}, "[2]": {"target": "T1, human WT APJR (apelin receptor), cryo-EM construct with a deletion of 50 residues from the C-terminus (human, UniProt P35414)", "T1 construct": "The N-terminal fusion is HA signal peptide, Flag tag, 10x His tag and BRIL, in pFastBac1; No cleavage of the fusion is mentioned; The protein is seen both as a monomer and as a homodimer; also called ProtA; ProtB; source: Trichoplusia ni (Hi5) insect cells, baculovirus; alone or co-expressed with Gi and/or JN241-9; purified (LMNG/CHS, Talon resin, SEC); not shown: His10, N-terminal, kept", "assay": "cryo-EM structure; purified APJR (LMNG/CHS) incubated 1 h at 4 °C with 125 µg JN241(-Fc), SEC in 20 mM HEPES pH 7.5, 100 mM NaCl; no Gi", "conditions": "both partners purified"}, "[3]": {"target": "T1, human WT APJR (apelin receptor), …", "assay": "cryo-EM 2D classification; JN241-APJR complex with the Fc tag removed from the sdAb; data quality insufficient for a high-resolution structure", "conditions": "both partners purified"}}}
{"binder": "B1", "values": [{"measurement": "binding result", "setting": "[1]", "result": "binds"}]}
{"binder": "B2", "values": [{"measurement": "binding result", "setting": "[2]", "result": "binds"}]}
{"binder": "B3", "values": [{"measurement": "binding result", "setting": "[3]", "result": "binds"}]}
